Source: US20260055205A1 (published 2026)
Changes are numbered by the printed parent chain. Blank lines part the entries; values can stand above or below the binder they belong to.

What was measured:
[1] = biological target: huCD3e-Fc (human, UniProt P07766 23-126); assay: Octet, purified
Description: (§1) Pool 2 consisted of paTCE molecules each containing PSMA.262 and one of 64 CD3.23 mutation combination variants. Stability and affinity of the individually expressed molecules in the form of crude lysate was evaluated by Octet. […] The binding of these anti-CD3 molecules (CD3.227, CD3.228, CD3.229 and CD3.230) to human and cynomolgus CD3 was measured by Octet and the Tm was measured by Differential Scanning Fluorimetry. All variants were paired with PSMA.262 except for CD3.23 which was paired with PSMA.5.

[2] = biological target: T1, cyCD3e-Fc (cynomolgus monkey, UniProt Q95LI5 22-117); assay: Octet, purified
T1 sequence (looked up): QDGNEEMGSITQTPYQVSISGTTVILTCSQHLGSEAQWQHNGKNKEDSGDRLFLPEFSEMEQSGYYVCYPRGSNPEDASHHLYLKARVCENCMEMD
Description: as §1

[3] = biological target: T2, human CD3 epsilon (human, UniProt P07766 23-126, limits assumed); assay: Octet, crude lysate
T2 construct: also called huCD3e
How it was run: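 Binding of anti-CD3 paTCE variants to human and cynomolgus CD3 measured by Octet, using either purified protein or individually expressed crude lysate. Variants were paired with PSMA.262, except CD3.23, which was paired with PSMA.5.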

[4] = biological target: T3, human PSMA-Fc (human, UniProt Q04609 44-750); assay: Octet
T3 construct: also called Human PSMA-Fc fusion

[5] = biological target: T3, human PSMA-Fc; assay: Octet, PSMA-Fc
Description: Binding affinity of select PSMA PTE variants was tested by Octet.

[6] = biological target: T4, human PSMA (human, UniProt Q04609 44-750, limits assumed); assay: binding screen
T4 construct: also called huPSMA; hPSMA

[7] = biological target: T4, human PSMA; assay: binding kinetics, uTCE

T4 sequence (Q04609 44-750 limits assumed): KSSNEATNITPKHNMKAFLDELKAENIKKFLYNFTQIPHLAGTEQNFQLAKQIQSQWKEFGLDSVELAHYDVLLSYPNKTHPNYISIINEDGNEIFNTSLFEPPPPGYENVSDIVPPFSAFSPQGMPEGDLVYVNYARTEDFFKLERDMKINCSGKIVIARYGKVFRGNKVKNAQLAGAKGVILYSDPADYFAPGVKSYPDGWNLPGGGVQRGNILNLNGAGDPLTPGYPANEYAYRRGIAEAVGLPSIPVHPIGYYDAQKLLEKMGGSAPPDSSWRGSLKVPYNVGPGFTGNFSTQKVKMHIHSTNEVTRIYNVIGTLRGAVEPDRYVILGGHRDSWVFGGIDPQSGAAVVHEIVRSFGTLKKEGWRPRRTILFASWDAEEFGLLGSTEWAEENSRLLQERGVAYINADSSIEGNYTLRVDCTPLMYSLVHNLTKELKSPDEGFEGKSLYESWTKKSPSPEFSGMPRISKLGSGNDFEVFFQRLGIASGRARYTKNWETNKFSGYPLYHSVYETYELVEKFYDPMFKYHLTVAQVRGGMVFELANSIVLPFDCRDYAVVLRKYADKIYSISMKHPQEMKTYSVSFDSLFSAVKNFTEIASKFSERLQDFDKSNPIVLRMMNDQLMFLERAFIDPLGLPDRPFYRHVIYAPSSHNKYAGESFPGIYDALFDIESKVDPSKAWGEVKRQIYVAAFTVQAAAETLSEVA
T3 sequence (Q04609 44-750 limits assumed): as above
Chain of huCD3e-Fc (P07766 23-126): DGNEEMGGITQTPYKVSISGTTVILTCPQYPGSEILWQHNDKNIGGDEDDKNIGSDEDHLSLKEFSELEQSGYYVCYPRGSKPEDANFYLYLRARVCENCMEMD
T2 sequence (P07766 23-126 limits assumed): as the sequence (P07766 23-126) above

B1: CD3.227 (bispecific antibody, V domains shown)
VH: EVQLVESGGGIVQPGGSLRLSCAASGFTFNTYAMNWVRQAPGKGLEWVGRIRTKRNNYATYYADSVKGRFTISRDDSKNTVYLQMNSLKTEDTAVYYCVRHENFGNSYVSWFAHWGQGTLVTVSS
VL: ELVVTQEPSLTVSPGGTVTLTCRSSNGAVTSSNYANWVQQKPGQAPRGLIGGTNKRAPGTPARFSGSLLGGKAALTLSGVQPEDEAVYYCALWYPNLWVFGGGTKLTVL
notes: paTCE with PSMA.262; also called AC3658
- Kd [1]: 57 nM
- koff [1]: 0.0196 s⁻¹
- kon [1]: 342000 M⁻¹ s⁻¹
- Kd [2]: 80 nM
- koff [2]: 0.0253 s⁻¹
- kon [2]: 315000 M⁻¹ s⁻¹
- Kd [3]: 8.2 nM

B2: CD3.228 (bispecific antibody, V domains shown)
VH: B1 VH with N30S
VL: B1 VL
notes: paTCE with PSMA.262; also called AC3659
- Kd [1]: 69 nM
- koff [1]: 0.0217 s⁻¹
- kon [1]: 317000 M⁻¹ s⁻¹
- Kd [2]: 80 nM
- koff [2]: 0.0266 s⁻¹
- kon [2]: 334000 M⁻¹ s⁻¹
- Kd [3]: 6.2 nM

B3: CD3.229 (bispecific antibody, V domains shown)
VH: B1 VH with R55T
VL: B1 VL
notes: paTCE with PSMA.262; also called AC3660
- Kd [1]: 162 nM
- koff [1]: 0.052 s⁻¹
- kon [1]: 321000 M⁻¹ s⁻¹
- Kd [2]: 193 nM
- koff [2]: 0.0611 s⁻¹
- kon [2]: 317000 M⁻¹ s⁻¹
- Kd [3]: 11.9 nM

B4: CD3.230 (bispecific antibody, V domains shown)
VH: B1 VH with N30S, R55T
VL: B1 VL
notes: paTCE with PSMA.262; also called AC3661
- Kd [1]: 195 nM
- koff [1]: 0.0633 s⁻¹
- kon [1]: 325000 M⁻¹ s⁻¹
- Kd [2]: 216 nM
- koff [2]: 0.0726 s⁻¹
- kon [2]: 336000 M⁻¹ s⁻¹
- Kd [3]: 17 nM

B5: PSMA.6 (uTCE of AC2728) (bispecific antibody, V domains shown)
VH: EVQLVESGGGVVQPGRSLRLSCAASGRTFGIYVMGWVRQAPGKEREFVAAISWSGSNRLVSDSVKGRFTISRDNSKNTLYLQMNSLRAEDTAVYFCAASNRLYGRTWYDFNESDYWGQGTTVTVSS
notes: TCE with CD3.23; also called VHH14
- Kd [4]: 2.3 nM
- koff [4]: 0.00024 s⁻¹
- kon [4]: 96000 M⁻¹ s⁻¹
- Kd [5]: 2.3 nM
- koff [5]: 0.000235 s⁻¹
- kon [5]: 96300 M⁻¹ s⁻¹

B6: AC2717 (PSMA.5 with CD3.23) (bispecific antibody, V domains shown)
VHH: B5 VH with E1Q, F95Y, T121Q
VL: B1 VL
VH: B1 VH with V5L, R19K, G49A, T53S, R55Y, G68D, S87N
notes: Domains of one TCE chain; also called VHH3
- Kd [6]: 4.8 nM
- Kd [1]: 131 nM
- koff [1]: 0.0289 s⁻¹
- kon [1]: 220000 M⁻¹ s⁻¹
- Kd [2]: 130 nM
- koff [2]: 0.0312 s⁻¹
- kon [2]: 240000 M⁻¹ s⁻¹
- Kd [3]: 12.9 nM

B11: PSMA.285 (bispecific antibody, V domains shown)
VH: B5 VH with E1Q, M34F, A49G, L59K, F95Y, T121Q
notes: TCE with CD3.23; also called AC3494
- Kd [6]: 3.1 nM

B13: AC3471 (PSMA.262 with CD3.23) (bispecific antibody, V domains shown)
VHH: B5 VH with E1Q, M34W, A49G, L59K, F95Y, R101K, T121Q
VL: B1 VL
VH: B1 VH with V5L, R19K, G49A, T53S, R55Y, G68D, S87N
notes: Domains of one TCE chain; also called CD3.23 WT
- Kd [6]: 2.7 nM
- Kd [3]: 13.5 nM

Other lines, results leading:

- Kd [6]: 6.2 nM
B7: PSMA.289 (bispecific antibody, V domains shown)
VH: B5 VH with E1Q, M34F, I51M, L59K, F95Y, T121Q
notes: TCE with CD3.23; also called AC3498

- Kd [6]: 2.3 nM
B8: PSMA.287 (bispecific antibody, V domains shown)
VH: B5 VH with E1Q, V37F, A49G, L59K, F95Y, T121Q
notes: TCE with CD3.23; also called AC3496

- Kd [6]: 5.5 nM
B9: PSMA.290 (bispecific antibody, V domains shown)
VH: B5 VH with E1Q, M34W, I51M, L59K, F95Y, T121Q
notes: TCE with CD3.23; also called AC3499

- Kd [6]: 2.6 nM
B10: PSMA.291 (bispecific antibody, V domains shown)
VH: B5 VH with E1Q, V37F, I51M, L59K, F95Y, T121Q
notes: TCE with CD3.23; also called AC3500

- binding result [6]: no binding
B12: PSMA.286 (bispecific antibody, V domains shown)
VH: B5 VH with E1Q, M34W, A49G, L59K, F95Y, T121Q
notes: TCE with CD3.23; also called AC3495

- Kd [6]: 6 nM
B14: PSMA.288 (bispecific antibody, V domains shown)
VH: B5 VH with E1Q, V33A, I51M, L59K, F95Y, T121Q
notes: TCE with CD3.23; also called AC3497

- Kd [7]: 0.6 nM
- koff [7]: 0.000156 s⁻¹
- kon [7]: 261000 M⁻¹ s⁻¹
B15: uTCE PSMA-VHH; P01E02R3, CD3.23 (bispecific antibody)
chain: LTGPATSGSETPGTEVQLVESGGGLVQAGGSLKLSCVANGPTFSTYAMAWFRQAPGKEHEFVAAITGDGDTTNNADSVKGRFTISRDNAKNRVYLQLNSLKPEDTAAYYCAAGVHHTYTIPRLWLYWGQGTQVTVSSGGGGSGGGSELVVTQEPSLTVSPGGTVTLTCRSSNGAVTSSNYANWVQQKPGQAPRGLIGGTNKRAPGTPARFSGSLLGGKAALTLSGVQPEDEAVYYCALWYPNLWVFGGGTKLTVLGATPPETGAETESPGETTGGSAESEPPGEGEVQLLESGGGIVQPGGSLKLSCAASGFTFNTYAMNWVRQAPGKGLEWVARIRSKYNNYATYYADSVKDRFTISRDDSKNTVYLQMNNLKTEDTAVYYCVRHENFGNSYVSWFAHWGQGTLVTVSSGTAEAASASGEAGRSANHTPAG

- Kd [7]: 1.15 nM
- koff [7]: 0.000205 s⁻¹
- kon [7]: 178000 M⁻¹ s⁻¹
B16: uTCE PSMA-VHH; CB01B02R3, CD3.23 (bispecific antibody)
chain: LTGPATSGSETPGTQVQLVESGGGLVQAGDSLRLSCVTSGRTFDVYAMGWFRQAPGKERELVAAINWSGSNKFHADSVKGRFTISRDNAWKTLSLQMNSLKPEDTAVYFCAASTRLYGTTWYEFNDSDYWGQGTQVTVSSGGGGSGGGSELVVTQEPSLTVSPGGTVTLTCRSSNGAVTSSNYANWVQQKPGQAPRGLIGGTNKRAPGTPARFSGSLLGGKAALTLSGVQPEDEAVYYCALWYPNLWVFGGGTKLTVLGATPPETGAETESPGETTGGSAESEPPGEGEVQLLESGGGIVQPGGSLKLSCAASGFTFNTYAMNWVRQAPGKGLEWVARIRSKYNNYATYYADSVKDRFTISRDDSKNTVYLQMNNLKTEDTAVYYCVRHENFGNSYVSWFAHWGQGTLVTVSSGTAEAASASGEAGRSANHTPAG
notes: also called PSMA.3

- Kd [7]: 55.7 nM
- koff [7]: 0.000539 s⁻¹
- kon [7]: 9670 M⁻¹ s⁻¹
B17: uTCE PSMA-VHH; P01G03R3, CD3.23 (bispecific antibody)
chain: LTGPATSGSETPGTEVQLVESGGGLVQAGGSLRLSCVVSGIAFSPYHMAWYRQAPGKQHEWVAVITTGGTTAYNETVEGRFSISRDNARSTVYLQMNSLKPEDTAVYYCNIYGLSLKWGQGTQVTVSSGGGGSGGGSELVVTQEPSLTVSPGGTVTLTCRSSNGAVTSSNYANWVQQKPGQAPRGLIGGTNKRAPGTPARFSGSLLGGKAALTLSGVQPEDEAVYYCALWYPNLWVFGGGTKLTVLGATPPETGAETESPGETTGGSAESEPPGEGEVQLLESGGGIVQPGGSLKLSCAASGFTFNTYAMNWVRQAPGKGLEWVARIRSKYNNYATYYADSVKDRFTISRDDSKNTVYLQMNNLKTEDTAVYYCVRHENFGNSYVSWFAHWGQGTLVTVSSGTAEAASASGEAGRSANHTPAG
